Test results published in article PMC5808845.

Assays:
[1] = biological target: GST-TRF2 (human, UniProt Q15554 43-542); experiment: EMSA
[2] = biological target: GST-TRF1 (human, UniProt P54274 1-439); experiment: EMSA
Sequence of GST-TRF1 (P54274 whole entry): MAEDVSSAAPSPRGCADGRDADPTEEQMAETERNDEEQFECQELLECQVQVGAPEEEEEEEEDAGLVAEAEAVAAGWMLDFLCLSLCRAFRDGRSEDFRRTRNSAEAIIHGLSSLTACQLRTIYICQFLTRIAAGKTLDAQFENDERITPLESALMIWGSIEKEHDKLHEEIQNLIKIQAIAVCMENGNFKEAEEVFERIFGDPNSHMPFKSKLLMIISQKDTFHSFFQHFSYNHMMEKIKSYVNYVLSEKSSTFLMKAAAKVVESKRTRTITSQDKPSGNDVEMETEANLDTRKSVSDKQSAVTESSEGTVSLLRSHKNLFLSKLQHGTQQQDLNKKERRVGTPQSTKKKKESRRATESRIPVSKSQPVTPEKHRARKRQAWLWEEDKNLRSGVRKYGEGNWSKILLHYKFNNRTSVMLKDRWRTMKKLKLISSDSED

Sequence of GST-TRF2 (Q15554 43-542): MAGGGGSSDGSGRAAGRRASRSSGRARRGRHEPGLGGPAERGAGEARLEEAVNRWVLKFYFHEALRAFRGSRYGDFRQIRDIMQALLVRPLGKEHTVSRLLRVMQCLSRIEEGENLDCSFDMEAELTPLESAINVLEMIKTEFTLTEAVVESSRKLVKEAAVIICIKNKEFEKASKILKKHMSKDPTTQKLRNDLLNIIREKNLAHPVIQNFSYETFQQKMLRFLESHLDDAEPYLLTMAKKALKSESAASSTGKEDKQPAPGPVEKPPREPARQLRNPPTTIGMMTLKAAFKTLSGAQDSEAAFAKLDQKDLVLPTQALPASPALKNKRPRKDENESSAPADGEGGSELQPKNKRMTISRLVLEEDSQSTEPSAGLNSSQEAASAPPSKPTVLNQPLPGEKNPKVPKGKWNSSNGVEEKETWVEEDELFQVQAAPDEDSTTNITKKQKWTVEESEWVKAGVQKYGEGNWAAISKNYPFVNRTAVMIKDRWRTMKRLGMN

Row | Binder | binding result [1] | binding result [2]
1 | TTAGGGTTAGGGTTAGGGTTAGGGTTAGGG (ssDNA) [(TTAGGG)5 DNA] | no binding | no binding
2 | TATCGATAAGCTTGATATCGAATTCCTGCA (ssDNA) [random DNA] | no binding | no binding
3 | CCCUAACCCUAACCCUAACCCUAACCCUAA (ssRNA) [(CCCUAA)5 RNA] | no binding | no binding
4 | AGAGAUUGCCUGACGUCAGAGAGCUAGCGA (ssRNA) [random RNA] | no binding | no binding
